Holding throughout (conditions): FMN input: 0 or 200 uM; Eterna round: R93 (includes R88 designs)
For series [1], the system named is MS2 coat protein. In words: apparent KD of MS2 coat protein, switch ON state; designed switch direction (-1 OFF switch, 1 ON switch): 1; higher = weaker reporter binding. The method in brief: (§1)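 Binding of SNAP-549-labelled MS2 coat protein was measured on designed RNA switches transcribed on-chip from Illumina sequencing clusters. The protein rose in twofold steps from 0.7 or 1.5 nM to 3 µM, with 0.8–1.5 h per step early on and 10–20 min per step later, in 100 mM Tris-HCl pH 7.5, 80 mM KCl, 4 mM MgCl2, without or with constant ligand. Each design's apparent KD is the median of fits to its normalised cluster binding curves.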

The test system of series [2] is MS2 coat protein. In words: apparent KD of MS2 coat protein, switch OFF state (with FMN for OFF switches, without FMN for ON switches); designed switch direction (-1 OFF switch, 1 ON switch): 1; higher = weaker reporter binding. In outline:
as §1

Series [3] concerns MS2 coat protein. Briefly: apparent KD of MS2 coat protein, switch ON state; designed switch direction (-1 OFF switch, 1 ON switch): -1; higher = weaker reporter binding. In outline: as §1
Series [4] deals with MS2 coat protein. Briefly: apparent KD of MS2 coat protein, switch OFF state (with FMN for OFF switches, without FMN for ON switches); designed switch direction (-1 OFF switch, 1 ON switch): -1; higher = weaker reporter binding. In outline:
as §1

The source of these data is the supplement of paper PMC9170038.

Regarding “AAAAAACAUGAGGAUCACCCAUGUCCUCGGACGUGAGGAUAUGUACAGACUUCGGUCUGUACAGAAGGCAUGAAAA [SS1 - 1059]”, the “apparent KD of MS2 coat protein” value amounted to 432 nM in the series on MS2 coat protein [1] and 201 nM with MS2 coat protein [2].
As for “AUAUAAAUAAGCUAGGAUAUACUAAAGUAAACAUGAGGAUCACCCAUGUGAAGAAAGAAACUCAUGUAGAAGGAGCAUAUAUAUA [viburnum 3]”, the “apparent KD of MS2 coat protein” value in the series on MS2 coat protein [1] was 45.6 nM; in the series with MS2 coat protein [2], 185 nM.
Regarding “CGGCUACAUGAGGAUCACCCAUGUCAGCCGAGGGCAGGAUAUGCGGUUCAUUCUCAAGCAGCAGAAGGGUCAAAAG [Onmabiat]”, the “apparent KD of MS2 coat protein” value in the series on MS2 coat protein [1] was 12.8 nM; in the series on MS2 coat protein [2] it was 8.83 nM.
Take “AUGAAUAGCCUCGAGGAUAUCCAGUCAUGCACAUGAGGAUCACCCAUGUAAGAGAGAGUAUAAUGGGAGAAGGCGAGUUCUCGGU [JR_SS002_Sub1705]”: the “apparent KD of MS2 coat protein” value was 50.5 nM in the series on MS2 coat protein [1] and 72.2 nM with MS2 coat protein [2].
Consider “CGGAGACAUGAGGAUCACCCAUGUGAGAAGAGGCGAGGAUAUCGAAAGAAAGAAGAGAAACGAGAAGGCGCGAGGU [salish99-SS1-071]”, for which the “apparent KD of MS2 coat protein” value with MS2 coat protein [1] amounted to 24.2 nM; in the series on MS2 coat protein [2] it was 34.5 nM.
For “CAGCGCUGUCGAGAGGAUAUGCGGUGAAGGACAUGAGGAUCACCCAUGUAAGCGAUAGUAUUACGGUAGAAGGCUCUACAGCUGC [Isdianbia]”, in that order: 41.8 nM and 114 nM.
Take “GAAAAACAUGAGGAUCACCCAUGUGAAAAUAUGGGAGGAUAUACAAAGACGAAAGUCAAAGUAGAAGGCCUAAAAG [Mat - Same State 1 - Eli mod - D3]”: the “apparent KD of MS2 coat protein” value stood at 23.5 nM with MS2 coat protein [1] and 139 nM with MS2 coat protein [2].
Consider “UGGAGACAUGAGGAUCACCCAUGUGAGAAGAGGCGAGGAUAUCGAAAAAAAAAAAAAAAACGAGAAGGCGCGAGAU [salish99-SS1-008]”, for which the “apparent KD of MS2 coat protein” value came to 25.9 nM in the series with MS2 coat protein [1] and 22.1 nM in the series on MS2 coat protein [2].
In the same order, the values of “GAGGACAUAGUAUAGGAUAUAUGAAUAGUUACAUGAGGAUCACCCAUGUGCAUUUAUAUGCGAACAUAGAAGGGUGGUAGUUAUC [SameState2 Malc#31]” are 122 nM and 75.1 nM.
For “AAAAGACAUGAGGAUCACCCAUGUGAAAACGUACAAGGAUAUGUGUGGAAACCGUACUAUACAGAAGGUGUCUGUC [SS1 - 87]”, in that order: 63 nM and 30.2 nM.
For “AUAAAACAUGAGGAUCACCCAUGUAGAAAUAUGGGAGGAUAUACUAGAUCGAAAGAUCUAGUAGAAGGCCUCAAAG [JL Mod of Eli 2]”, in that order: 58.8 nM and 58.9 nM.
On to “AAUUCCACUAGCAAGGAUAUCUAAAACGAAACAUGAGGAUCACCCAUGUGACGACCACACGUAUCAGAGAAGGUGCAGGGUGAAU [JR_SS002_Sub307]”, for which the results for the “apparent KD of MS2 coat protein” value in the series on MS2 coat protein [1] and with MS2 coat protein [2] were 20.5 nM and 31.9 nM, respectively.
For “AACAAUCUAUCUGAGGAUAUGUGUCGAAAGACAUGAGGAUCACCCAUGUAAAAACAUGAAAAGAUACAGAAGGCAGAUAGAUUGA [SS2: 1156]”, in that order: 18.1 nM and 29.3 nM.
In the same order, the values of “AAAAGACAUGAGGAUCACCCAUGUCAAAACGUAGGAGGAUAUGUCUUGAAAAAAGACUUGACAGAAGGCCUGUGUC [SS1 - 54]” are 15.1 nM and 17 nM.
Turning to “AAAAAACAUGAGGAUCACCCAUGUAAGGAUAUCUAAAAUAAAAGAAAAAUAAAGAAAAGGAGAAGGUAUAUGAA [JL wbt mod 20]”, the “apparent KD of MS2 coat protein” value in the series on MS2 coat protein [3] was 19.8 nM; in the series with MS2 coat protein [4] it was 25.7 nM.
“AUAAAACAUGAGGAUCACCCAUGUGAGGAUAUGCGAAAUAAUGAAUAAAGAAAUAAAAGCAGAAGGCACAAAAA [LROPPY Exclusion 1 - v05_deltaG=1.64 break up some As mixed]”: the “apparent KD of MS2 coat protein” value came to 32.8 nM in the series on MS2 coat protein [3] and 28.9 nM in the series on MS2 coat protein [4].
On to “AGCAAACAUGAGGAUCACCCAUGUGAGGAUAUGAACGAAAUAAAAUAAAAAUAAAAGUUCAGAAGGCACGAGCA [Mat - Exclusion 1 - Eli mod - D26]”, for which the “apparent KD of MS2 coat protein” value in the series on MS2 coat protein [3] was 27.3 nM; in the series with MS2 coat protein [4] it was 37.4 nM.
As for “AAAUAGUUAGGAUAUACAUGAGGAUCACCCAUGUGGACUUAUGGAGAAUAGUUUAAUGGUAGAAGGGACUAAAA [EX2 Malc#25]”, the “apparent KD of MS2 coat protein” value was determined as 52.8 nM in the series on MS2 coat protein [3] and 36.5 nM with MS2 coat protein [4].
For “AGUCUGAGAGGAUAUACAUAGGAAAAAAAAGUAAGAUCCCUACAUGAGGAUCACCCAUGUAGAAGGCUCUGACA [Ex2 Design 142: Sub-opt 6]”, in that order: 46.9 nM and 67.7 nM.
As to “AGGAACCUAGGAUAUACAUGAGGAUCACCCAUGUCACGAGUCAAACACAGGUAUCCUAGUAGAAGGAGGAACAC [Inlaveor]”, the results for the “apparent KD of MS2 coat protein” value in the series with MS2 coat protein [3] and with MS2 coat protein [4] were 22 nM and 42.1 nM, respectively.
Take “AAAAAGUCAGGAUAUUCGGAAGGGAAAGCGCAAACCCAACCGAAGAAGGGACAUGAGGAUCACCCAUGUGGAAA [Ecls4-III 65% - Late G segment 1]”: the “apparent KD of MS2 coat protein” value was 79 nM in the series on MS2 coat protein [3] and 88.9 nM with MS2 coat protein [4].
For “AAAAAACAUGAGGAUCACCCAUGUGAGGAUAUUGGUAUUCAAGAAACCCUCUUAAUAGCGAGAAGGCGCAAAAA [Brourd 613 Mod 18 - Jieux - Exclusion 1]”, the “apparent KD of MS2 coat protein” value in the series with MS2 coat protein [3] was determined as 22.2 nM; in the series with MS2 coat protein [4] it was 19.8 nM.
In the same order, the values of “GAAACACAUGAGGAUCACCCAUGUCAGGAUAUGUAGAUAAAAAGAAAAUAAAAUAAAAGCAGAAGGGACAAAAG [Mat - Same state - Mayanna Mod - D104]” are 30.2 nM and 29.4 nM.
In the same order, the values of “AACAAACAUGAGGAUCACCCAUGUGAGGAUAUCGAAACAACAAACAACAAACAACAAACGAGAAGGCGCAACAA [e1-2]” are 18.8 nM and 17.3 nM.
For “AAGAAGUCAGGAUAUCCAAAAGAAAAGAAAAGAAAAGAAAAGGAGAAGGGACAUGAGGAUCACCCAUGUAAGAA [Khnemibre Ahmose II]”, in that order: 71.3 nM and 20.9 nM.
In the case of “AAGAAGACAGGAUAUACUAAAGAAAUGAAAAGAAAGAAAGAACAUGAGGAUCACCCAUGUAGAAGGGUCAAGAA [Sewahenre Senebmiu]”, the “apparent KD of MS2 coat protein” value in the series with MS2 coat protein [3] is 66.2 nM; in the series with MS2 coat protein [4], 45.1 nM.
Turning to “AGCUAGCGAGGAUAUGCGAACAUGUCAAAAGACGUGAAGGGACAUGAGGAUCACCCAUGUAGAAGGCGCUAGCA [JL 74% mod 4]”, the “apparent KD of MS2 coat protein” value in the series on MS2 coat protein [3] worked out at 24.7 nM; in the series with MS2 coat protein [4], 29.6 nM.
Take “GUGUACAGAGGAUAUACAUGAGCAUGGAAACAUGCAAGAUCACAUGAGGAUCACCCAUGUAGAAGGCUGUACAC [Ex2: 733]”: the results for the “apparent KD of MS2 coat protein” value in the series with MS2 coat protein [3] and in the series on MS2 coat protein [4] were 50.3 nM and 30.8 nM, respectively.
In the same order, the values of “CAGUACUGAGGAUAUACAUGAGGAUCACCCAUGUGUAAAAGCUAGGAAACUAGCACAUGUAGAAGGCAGUACUG [Ex3: 815]” are 48.3 nM and 230 nM.
Turning to “AUGUACCUAGGAUAUACAUGAGGAUCACCCAUGUAUUGGGAGCAAUCAAGUUAAUAUUGUAGAAGGAGGUGAAA [JR_Exc003_Sub316]”, the “apparent KD of MS2 coat protein” value in the series with MS2 coat protein [3] came to 25.7 nM; in the series on MS2 coat protein [4], 67.9 nM.
Consider “AAAAAUGGAGGAUAUACGAACAUGUCAAAAGACGUGAAGGGACAUGAGGAUCACCCAUGUAGAAGGCUAAAAAA [JL Stem Breaker 3]”, for which the “apparent KD of MS2 coat protein” value came to 87.1 nM in the series on MS2 coat protein [3] and 40.3 nM with MS2 coat protein [4].
On to “AAAAAGGCAGGAUAUACAUGAGGAUCACCCAUGUGAAAAAAAAAAAAAAAAAAAAAGUGUAGAAGGGUCAAAAA [Exclusion 3 - Omei 2]”, for which the entries for the “apparent KD of MS2 coat protein” value with MS2 coat protein [3] and with MS2 coat protein [4] were 51.7 nM and 51.4 nM, respectively.
As to “AACAAGACAGGAUAUACAUGAGGAUCACCCAUGUCACAAUAAAGCAGCGCAACACAAAGUAGAAGGGUCAUGGA [Ruby 10]”, the “apparent KD of MS2 coat protein” value in the series with MS2 coat protein [3] amounted to 73.8 nM; with MS2 coat protein [4] it was 59.2 nM.
In the same order, the values of “AGCUAGUCAGGAUAUACAUAAAAAAAAAAAAAAAGUGAUAAACAUGAGGAUCACCCAUGUAGAAGGGACUAGCA [Similarities v.4.2 (34 mutated to A)]” are 29 nM and 48.3 nM.
Consider “AAGAAGCGAGGAUAUACAAAAUAAAAGAAAAGAAAGAAAGAACAUGAGGAUCACCCAUGUAGAAGGUGCAAGAA [Sehetepkare Intef IV]”, for which the “apparent KD of MS2 coat protein” value worked out at 46.7 nM with MS2 coat protein [3] and 43.5 nM in the series with MS2 coat protein [4].
In the same order, the values of “ACAAGAUCAGGAUAUACAUGAGGAUCACCCAUGUGAAAGAACGAUUAACGACCAGCAAGUAGAAGGGAUCAGGA [Ruby 82]” are 20.5 nM and 28.5 nM.
For “CUGGUGUCAGGAUAUGCAUAGCAGUGACCAAAACCCGGUCAGCAGAAGGGACAUGAGGAUCACCCAUGUUAAAG [Alatele]”, in that order: 22.3 nM and 57.7 nM.
Take “AGGAAACAUGAGGAUCACCCAUGUUAGGAUAUGAACGAAAUAAAAUAAAAAUAAAAGUUCAGAAGGAACAAAAA [Mat - Exclusion 1 - Eli mod - D19]”: the entries for the “apparent KD of MS2 coat protein” value with MS2 coat protein [3] and with MS2 coat protein [4] were 28.2 nM and 41.3 nM, respectively.
